From the Human Domainome abundance scans (Beltran et al. 2025)
± gives the uncertainty stated by the source.

B1: Chromodomain-helicase-DNA-binding protein 4, residues 623 to 675; numbered along this chain, Q14839 (parent)
chain: MIHRILNHSVDKKGHVHYLIKWRDLPYDQASWESEDVEIQDYDLFKQSYWNHR

Variants of: B1
Experiment: abundance fitness (aPCA) (normalised: wild type 0, dead -1); higher = more abundant; growth selection in yeast, the domain comes from the species named
Conditions: Homo sapiens

Row | Variant | abundance fitness
1 | H17Q | -0.098 ± 0.12
2 | H17R | -0.174 ± 0.077
3 | H17S | -0.155 ± 0.094
4 | H17T | 0.115 ± 0.11
5 | H17V | -0.485 ± 0.085
6 | H17W | -0.302 ± 0.11
7 | H17Y | -0.04 ± 0.11
8 | Y18A | -0.688 ± 0.11
9 | Y18C | -0.59 ± 0.18
10 | Y18D | -0.963 ± 0.17
11 | Y18F | -0.43 ± 0.15
12 | Y18G | -0.798 ± 0.14
13 | Y18H | -0.736 ± 0.2
14 | Y18K | -0.838 ± 0.17
15 | Y18L | -0.86 ± 0.11
16 | Y18M | -0.957 ± 0.19
17 | Y18N | -0.754 ± 0.18
18 | Y18P | -0.833 ± 0.14
19 | Y18Q | -0.962 ± 0.2
20 | Y18R | -1.05 ± 0.14
21 | Y18S | -0.681 ± 0.12
22 | Y18V | -0.753 ± 0.11
23 | Y18W | -0.787 ± 0.17
24 | L19A | -0.892 ± 0.23

Row | Variant | abundance fitness
25 | L19C | -0.924 ± 0.27
26 | L19D | -0.71 ± 0.27
27 | L19F | -0.518 ± 0.21
28 | L19G | -0.604 ± 0.17
29 | L19H | -0.814 ± 0.2
30 | L19I | -0.772 ± 0.46
31 | L19N | -0.262 ± 0.35
32 | L19P | -0.74 ± 0.24
33 | L19S | -0.703 ± 0.17
34 | L19T | -0.775 ± 0.3
35 | L19V | -0.814 ± 0.14
36 | L19W | -0.866 ± 0.27
37 | L19Y | -0.282 ± 0.26
38 | I20A | -0.921 ± 0.1
39 | I20C | -0.686 ± 0.14
40 | I20E | -0.842 ± 0.31
41 | I20F | -0.946 ± 0.13
42 | I20G | -0.791 ± 0.12
43 | I20K | -0.878 ± 0.29
44 | I20L | -0.622 ± 0.087
45 | I20M | -0.612 ± 0.14
46 | I20N | -0.838 ± 0.15
47 | I20Q | -0.874 ± 0.21
48 | I20R | -0.722 ± 0.092

Row | Variant | abundance fitness
49 | I20S | -0.778 ± 0.092
50 | I20T | -0.885 ± 0.12
51 | I20V | -0.276 ± 0.088
52 | I20W | -0.633 ± 0.18
53 | I20Y | -0.825 ± 0.17
54 | K21A | -0.01 ± 0.098
55 | K21C | -0.424 ± 0.14
56 | K21D | -0.818 ± 0.19
57 | K21F | -0.537 ± 0.15
58 | K21G | -0.656 ± 0.13
59 | K21H | -0.008 ± 0.12
60 | K21I | -0.581 ± 0.16
61 | K21L | -0.204 ± 0.089
62 | K21N | -0.561 ± 0.19
63 | K21P | -0.855 ± 0.14
64 | K21Q | -0.106 ± 0.13
65 | K21S | -0.406 ± 0.095
66 | K21T | -0.949 ± 0.17
67 | K21V | -0.463 ± 0.1
68 | K21W | -0.201 ± 0.1
69 | K21Y | -0.349 ± 0.14
70 | W22A | -0.889 ± 0.14
71 | W22C | -0.793 ± 0.14
72 | W22E | -0.823 ± 0.2

Row | Variant | abundance fitness
73 | W22F | -0.825 ± 0.16
74 | W22G | -0.88 ± 0.16
75 | W22H | -0.733 ± 0.18
76 | W22I | -0.797 ± 0.23
77 | W22K | -0.891 ± 0.23
78 | W22L | -0.795 ± 0.091
79 | W22M | -0.447 ± 0.18
80 | W22N | -1.13 ± 0.37
81 | W22P | -0.959 ± 0.15
82 | W22Q | -0.796 ± 0.17
83 | W22R | -0.855 ± 0.12
84 | W22S | -0.806 ± 0.097
85 | W22T | -0.871 ± 0.15
86 | W22V | -0.55 ± 0.11
87 | R23A | -0.207 ± 0.11
88 | R23C | -0.294 ± 0.11
89 | R23D | -0.591 ± 0.18
90 | R23E | -0.279 ± 0.16
91 | R23F | -0.349 ± 0.11
92 | R23G | -0.481 ± 0.14
93 | R23H | -0.164 ± 0.15
94 | R23I | -0.161 ± 0.12
95 | R23K | 0.021 ± 0.14
96 | R23L | -0.219 ± 0.085

Row | Variant | abundance fitness
97 | R23M | -0.265 ± 0.13
98 | R23N | -0.5 ± 0.12
99 | R23P | -0.835 ± 0.17
100 | R23Q | -0.12 ± 0.13
101 | R23S | -0.236 ± 0.091
102 | R23T | -0.189 ± 0.12
103 | R23W | -0.183 ± 0.12
104 | R23Y | -0.139 ± 0.12
105 | D24A | -0.335 ± 0.12
106 | D24C | -0.588 ± 0.13
107 | D24E | -0.014 ± 0.097
108 | D24F | -0.423 ± 0.14
109 | D24G | -0.115 ± 0.086
110 | D24H | -0.142 ± 0.16
111 | D24I | -0.725 ± 0.16
112 | D24K | -0.461 ± 0.14
113 | D24L | -0.535 ± 0.095
114 | D24M | -0.552 ± 0.13
115 | D24N | -0.077 ± 0.1
116 | D24Q | -0.439 ± 0.14
117 | D24R | -0.487 ± 0.094
118 | D24S | -0.294 ± 0.09
119 | D24T | -0.309 ± 0.1
120 | D24V | -0.558 ± 0.1

Row | Variant | abundance fitness
121 | D24W | -0.353 ± 0.13
122 | D24Y | -0.53 ± 0.12
123 | L25A | -0.256 ± 0.1
124 | L25E | -0.363 ± 0.12
125 | L25F | -0.254 ± 0.12
126 | L25H | -0.195 ± 0.13
127 | L25I | -0.344 ± 0.12
128 | L25K | 0.206 ± 0.11
129 | L25M | 0.096 ± 0.12
130 | L25N | -0.143 ± 0.11
131 | L25P | -0.398 ± 0.12
132 | L25Q | -0.045 ± 0.12
133 | L25R | 0.059 ± 0.09
134 | L25S | -0.125 ± 0.085
135 | L25T | -0.013 ± 0.096
136 | L25V | -0.249 ± 0.085
137 | L25Y | -0.325 ± 0.12
138 | P26A | -0.751 ± 0.17
139 | P26C | -0.701 ± 0.22
140 | P26D | -0.163 ± 0.17
141 | P26E | -0.562 ± 0.14
142 | P26F | -0.749 ± 0.48
143 | P26G | -0.019 ± 0.099
144 | P26H | -0.274 ± 0.25

Row | Variant | abundance fitness
145 | P26I | -0.907 ± 0.27
146 | P26K | -0.59 ± 0.14
147 | P26L | -0.62 ± 0.11
148 | P26M | -0.761 ± 0.19
149 | P26N | -0.201 ± 0.15
150 | P26Q | -0.602 ± 0.19
151 | P26R | -0.533 ± 0.094
152 | P26S | -0.19 ± 0.1
153 | P26T | -0.392 ± 0.15
154 | P26V | -0.762 ± 0.14
155 | P26W | -0.662 ± 0.15
156 | P26Y | -0.339 ± 0.22
157 | Y27A | -0.003 ± 0.11
158 | Y27C | -0.171 ± 0.13
159 | Y27D | 0.133 ± 0.11
160 | Y27E | -0.241 ± 0.19
161 | Y27F | -0.118 ± 0.085
162 | Y27G | -0.201 ± 0.16
163 | Y27H | 0.068 ± 0.089
164 | Y27I | 0.21 ± 0.089
165 | Y27K | -0.013 ± 0.14
166 | Y27L | 0.156 ± 0.075
167 | Y27M | -0.248 ± 0.13
